In article PMC4697752:

B1: Matrix metalloproteinase-9 (MMP-9): mS38 (protein)
parent chain: MSLWQPLVLVLLVLGCCFAAPRQRQSTLVLFPGDLRTNLTDRQLAEEYLYRYGYTRVAEMRGESKSLGPALLLLQKQLSLPETGELDSATLKAMRTPRCGVPDLGRFQTFEGDLKWHHHNITYWIQNYSEDLPRAVIDDAFARAFALWSAVTPLTFTRVYSRDADIVIQFGVAEHGDGYPFDGKDGLLAHAFPPGPGIQGDAHFDDDELWSLGKGVVVPTRFGNADGAACHFPFIFEGRSYSACTTDGRSDGLPWCSTTANYDTDDRFGFCPSERLYTQDGNADGKPCQFPFIFQGQSYSACTTDGRSDGYRWCATTANYDRDKLFGFCPTRADSTVMGGNSAGELCVFPFTFLGKEYSTCTSEGRGDGRLWCATTSNFDSDKKWGFCPDQGYSLFLVAAHEFGHALGLDHSSVPEALMYPMYRFTEGPPLHKDDVNGIRHLYGPRPEPEPRPPTTTTPQPTAPPTVCPTGPPTVHPSERPTAGPTGPPSAGPTGPPTAGPSTATTVPLSPVDDACNVNIFDAIAEIGNQLYLFKDGKYWRFSEGRGSRPQGPFLIADKWPALPRKLDSVFEERLSKKLFFFSGRQVWVYTGASVLGPRRLDKLGLGADVAQVTGALRSGRGKMLLFSGRRLWRFDVKAQMVDPRSASEVDRMFPGVPLDTHDVFQYREKAYFCQDRFYWRVSSRSELNQVDQVGYVTYDILQCPED
B2: Matrix metalloproteinase-9 (MMP-9): N120S (protein)
parent chain: B1 parent chain
B3: Matrix metalloproteinase-9 (MMP-9): mS38/N120S (protein)
parent chain: B1 parent chain

Assay: secreted mCherry-tagged MMP-9, microplate reader
Conditions: glycan lost; control: wild type
For B1, the expression_or_secretion was “no change”.
In the case of B2, the expression_or_secretion is reported as “decreases”.
In the case of B3, the expression_or_secretion is reported as “decreases”.
